B1: human p40 tetramer (biotinylated human IL-12p40 on streptavidin-AF647) (ligand)
chain: IWELKKDVYVVELDWYPDAPGEMVVLTCDTPEEDGITWTLDQSSEVLGSGKTLTIQVKEFGDAGQYTCHKGGEVLSHSLLLLHKKEDGIWSTDILKDQKEPKNKTFLRCEAKNYSGRFTCWWLTTISTDLTFSVKSSRGSSDPQGVTCGAATLSAERVRGDNKEYEYSVECQEDSACPAAEESLPIEVMVDAVHKLKYENYTSSFFIRDIIKPDPPKNLQLKPLKNSRQVEVSWEYPDTWSTPHSYFSLTFCVQVQGKSKREKKDRVFTDKTSATVICRKNASISVRAQDRYYSSSWSEWASVPCSGLNDIFEAQKIEWHEHHHHHH
modifications: biotinylated
notes: also called human p40 tetramers
B2: human IL-12p40 (23-328) with C-terminal AviTag and 6x His (ligand)
chain: B1 chain
notes: Immobilized partner in the SPR experiment; also called interleukin-12 subunit p40

Experiments:
[1] = target: T1, human IL-12Rβ1 on human T cells and NK cells (human, UniProt P42701 24-662); test: flow cytometry, 200 nM human p40 tetramer (streptavidin-AF647) against streptavidin alone, human PBMC: NK cells and CD8+ T cells ex vivo and CD8+ T cell blasts
T1 construct: whole, on cells

[2] = target: T2, human IL-12Rβ1 (soluble, SPR analyte) (UniProt P42701 24-545, limits assumed); test: SPR, IL-12Rβ1 over immobilized IL-12p40, steady state affinity model
T2 construct: also called IL-12 receptor beta 1

Binder	binding result [1]	Kd [2]
B1	binds	–
B2	–	1700 nM
